For this data set, the target named is Exo10Rrp6 (crystal; Exo9 core + Rrp6 128-685 D238N) (Saccharomyces cerevisiae, UniProt Q12149;P38792;Q08285;P53859;P46948;Q05636;Q12277;P48240;P53256;P25359 …, D238N;Rrp6:). The data set is described as follows: X-ray crystallography.

For the molecule AAAAAAAAAAAAAAAAAAAAAAAA (ssRNA) [polyA24], the binding result is listed as “binds”.

Source of the values: PMC4310248.
